According to paper PMC10697951:
One block for each substance: values may come before it.

What was measured:
[1] = target: SUV420H1(1–390) K258A (human) (UniProt Q4FZB7); test: MST; His-tagged SUV420H1 labelled with RED-tris-NTA (50 nM protein, 10 nM dye) kept constant; nucleosomes serially diluted from 6 μM to 45.75 pM; 20 mM HEPES pH 7.5, 50 mM NaCl, 50 mM KCl, 1 mg/mL BSA, 0.05% Tween-20, 40 μM SAM, 2 mM DTT; room temperature; triplicate
[2] = target: SUV420H1(1–390) R357A (human) (UniProt Q4FZB7); test: as above
SUV420H1(1–390) R357A (human), sequence (Q4FZB7 1-390 R357A): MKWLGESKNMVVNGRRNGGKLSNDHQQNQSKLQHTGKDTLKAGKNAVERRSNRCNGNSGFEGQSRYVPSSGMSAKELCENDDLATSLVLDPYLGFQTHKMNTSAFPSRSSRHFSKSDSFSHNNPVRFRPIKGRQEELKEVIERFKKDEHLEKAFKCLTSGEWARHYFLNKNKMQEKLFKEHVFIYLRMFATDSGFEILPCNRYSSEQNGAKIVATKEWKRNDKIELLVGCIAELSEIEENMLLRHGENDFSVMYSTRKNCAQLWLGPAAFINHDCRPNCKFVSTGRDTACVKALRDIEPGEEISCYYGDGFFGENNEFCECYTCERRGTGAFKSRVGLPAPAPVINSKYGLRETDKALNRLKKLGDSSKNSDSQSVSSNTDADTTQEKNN

[3] = target: SUV420H1(1–390) R357H (human) (UniProt Q4FZB7); test: as above
SUV420H1(1–390) R357H (human), sequence (Q4FZB7 1-390 R357H): as the sequence (Q4FZB7 1-390 R357A) above, with A357H counted along it

[4] = target: SUV420H1(1–390) Y349A (human) (UniProt Q4FZB7); test: as above
SUV420H1(1–390) Y349A (human), sequence (Q4FZB7 1-390 Y349A): as the sequence (Q4FZB7 1-390 R357A) above, with Y349A, A357R counted along it

[5] = target: SUV420H1(63–390) (human) (UniProt Q4FZB7); test: as above
SUV420H1(63–390) (human), sequence (Q4FZB7 63-390): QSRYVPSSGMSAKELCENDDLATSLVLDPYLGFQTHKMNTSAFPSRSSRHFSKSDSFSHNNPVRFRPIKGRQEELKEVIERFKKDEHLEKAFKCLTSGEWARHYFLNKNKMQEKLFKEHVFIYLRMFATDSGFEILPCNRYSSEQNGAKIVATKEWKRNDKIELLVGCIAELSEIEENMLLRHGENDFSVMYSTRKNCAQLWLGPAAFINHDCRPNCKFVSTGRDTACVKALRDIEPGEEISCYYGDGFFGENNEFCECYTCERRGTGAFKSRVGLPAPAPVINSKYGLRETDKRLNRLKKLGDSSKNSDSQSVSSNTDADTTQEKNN

[6] = target: SUV420H1(1–390) R220A (human) (UniProt Q4FZB7); test: as above
SUV420H1(1–390) R220A (human), sequence (Q4FZB7 1-390 R220A): as the sequence (Q4FZB7 1-390 R357A) above, with R220A, A357R counted along it

[7] = target: SUV420H1(1–390) R286A (human) (UniProt Q4FZB7); test: as above
SUV420H1(1–390) R286A (human), sequence (Q4FZB7 1-390 R286A): as the sequence (Q4FZB7 1-390 R357A) above, with R286A, A357R counted along it

[8] = target: SUV420H1(1–390) R352A (human) (UniProt Q4FZB7); test: as above
SUV420H1(1–390) R352A (human), sequence (Q4FZB7 1-390 R352A): as the sequence (Q4FZB7 1-390 R357A) above, with R352A, A357R counted along it

[9] = target: SUV420H1(1–335) (human) (UniProt Q4FZB7); test: as above
SUV420H1(1–335) (human), sequence (Q4FZB7 1-335): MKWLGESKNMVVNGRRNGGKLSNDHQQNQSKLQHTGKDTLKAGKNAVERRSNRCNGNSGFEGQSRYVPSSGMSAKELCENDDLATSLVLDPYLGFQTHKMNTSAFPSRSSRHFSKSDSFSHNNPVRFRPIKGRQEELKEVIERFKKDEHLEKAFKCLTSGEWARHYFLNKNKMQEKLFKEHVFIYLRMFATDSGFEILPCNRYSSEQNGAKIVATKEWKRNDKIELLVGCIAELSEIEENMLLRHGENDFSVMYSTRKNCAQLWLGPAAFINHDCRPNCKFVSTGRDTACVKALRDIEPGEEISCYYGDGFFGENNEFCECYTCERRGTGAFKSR

[10] = target: SUV420H1(1–390) S283L (human) (UniProt Q4FZB7); test: as above
SUV420H1(1–390) S283L (human), sequence (Q4FZB7 1-390 S283L): as the sequence (Q4FZB7 1-390 R357A) above, with S283L, A357R counted along it

[11] = target: SUV420H1(1–390) R257A (human) (UniProt Q4FZB7); test: as above
SUV420H1(1–390) R257A (human), sequence (Q4FZB7 1-390 R257A): as the sequence (Q4FZB7 1-390 R357A) above, with R257A, A357R counted along it

[12] = target: SUV420H1(1–390) S255F (human) (UniProt Q4FZB7); test: as above
SUV420H1(1–390) S255F (human), sequence (Q4FZB7 1-390 S255F): as the sequence (Q4FZB7 1-390 R357A) above, with S255F, A357R counted along it

[13] = target: SUV420H1(1–390), wild type, with N-terminal 6× His-TEV tag (human) (UniProt Q4FZB7); test: as above
SUV420H1(1–390), wild type, with N-terminal 6× His-TEV tag (human), sequence (Q4FZB7 1-390): as the sequence (Q4FZB7 1-390 R357A) above, with A357R counted along it

[14] = target: SUV420H1(1-390) wild type (human) (UniProt Q4FZB7); test: MST; conditions: MST: 20 mM HEPES pH 7.5, 50 mM NaCl (listed twice), 50 mM KCl, 1 mg/mL BSA, 0.05% Tween-20, 40 uM SAM, 2 mM DTT, room temperature, EMSA: 25 mM HEPES pH 7.5 …
SUV420H1(1-390) wild type (human), sequence (Q4FZB7 1-390): as the sequence (Q4FZB7 1-390 R357A) above, with A357R counted along it

[15] = test system: SUV420H1(1-335) (human); test: MST; conditions: histone H4 K20M; MST: 20 mM HEPES pH 7.5, 50 mM NaCl (listed twice), 50 mM KCl, 1 mg/mL BSA, 0.05% Tween-20, 40 uM SAM, 2 mM DTT, room temperature; EMSA: 25 mM HEPES pH 7.5 …
[16] = test system: SUV420H1(63-390) (human); test: MST; conditions: histone H4 K20M; MST: 20 mM HEPES pH 7.5, 50 mM NaCl (listed twice), 50 mM KCl, 1 mg/mL BSA, 0.05% Tween-20, 40 uM SAM, 2 mM DTT, room temperature; EMSA: 25 mM HEPES pH 7.5 …

SUV420H1(1–390) K258A (human), sequence (Q4FZB7 1-390 K258A): as the sequence (Q4FZB7 1-390 R357A) above, with K258A, A357R counted along it

Substance: H2A.Z-containing nucleosome core particle with wild-type H4 (H4K20) (from UniProt P0C0S5 14-126; P06899 1-126; P68431 1-136; P62805 1-103) (complex)
Kd [13]: 130 nM

Substance: NCP H2A, H4K20 (canonical)
Kd [14]: 227 nM

Substance: NCP H2A, H4K20M
Kd ([14]; histone H4 K20M): 62 nM
Kd [15]: 292 nM
Kd [16]: 410 nM

Substance: NCP H2A.Z, H4K20
Kd ([14]; histone variant H2A.Z): 130 nM

Continued, values first:

Kd [1]: 112 nM
Kd [2]: 213 nM
Kd [3]: 83 nM
Kd [4]: 108 nM
Kd [5]: 410 nM
Kd [6]: 93 nM
Kd [7]: 323 nM
Kd [8]: 220 nM
Kd [9]: 292 nM
Kd [10]: 85 nM
Kd [11]: 144 nM
Kd [12]: 182 nM
Kd [13]: 62 nM
Substance: H2A-containing nucleosome core particle with H4K20M (from UniProt P04908 16-130; P06899 1-126; P68431 1-136) (complex)

Kd [13]: 227 nM
Substance: H2A-containing nucleosome core particle with wild-type H4 (H4K20) (from UniProt P04908 16-130; P06899 1-126; P68431 1-136; P62805 1-103) (complex)
